This is an account of results in publication PMC4225172.

The target in assay [1] is BoLA-1*02301 (D18.4) heavy chain folded with 125I-radiolabeled bovine met-β2m (cattle (Holstein) | bovine) (UniProt P01888). Kind of assay: scintillation proximity assay. For orientation: In a scintillation proximity assay essentially only radioactivity close to the scintillant gives light.
The target in assay [2] is BoLA-3*00101 (AW10) heavy chain folded with 125I-radiolabeled bovine met-β2m (cattle (Boran) | bovine) (UniProt P01888). The assay can be described thus: scintillation proximity assay.
In assay [3] the target is BoLA-3*00201 (JSP.1) heavy chain folded with 125I-radiolabeled bovine met-β2m (cattle (Holstein) | bovine) (UniProt P01888). Kind of assay: scintillation proximity assay.
Assay [4] concerns the target BoLA-3*00201 (JSP.1) heavy chain folded with recombinant human β2m (cattle (Holstein) | human) (UniProt P61769). The assay can be described thus: AlphaScreen or HTRF. Background: Bead proximity is the source of the signal in Alpha formats.
Assay [5] has as its target BoLA-T2C heavy chain folded with recombinant human β2m (cattle (Bos taurus×Bos indicus) | human) (UniProt P61769). The assay can be described thus: AlphaScreen or HTRF.
In assay [6] the target is BoLA-1*02301 (D18.4) heavy chain folded with recombinant human β2m (cattle (Holstein) | human) (UniProt P61769). Kind of assay: AlphaScreen or HTRF.
Assay [7] concerns the target BoLA-2*01201 (T2A) heavy chain folded with recombinant human β2m (cattle (Holstein) | human) (UniProt P61769). Kind of assay: AlphaScreen or HTRF.
Assay [8] has as its target BoLA-2*01201 (T2A) heavy chain folded with 125I-radiolabeled bovine met-β2m (cattle (Holstein) | bovine) (UniProt P01888). The assay can be described thus: scintillation proximity assay.

With Tp9 199–228 epitope […] (peptide), in assay [1], the half-life of the pBoLA-I complex was 4 h.
Substance Tp5 87–95 epitope … (peptide) returned a half-life of the pBoLA-I complex in assay [1] of 18 h.
As to Tp8 379–387 epitope […] (peptide), the half-life of the pBoLA-I complex is 14 h in assay [2] and 2 h in assay [3].
For Tp2 96–104 epitope […] (peptide), the half-maximal effective concentration (EC50) in assay [4] stood at 767 nM; in assay [5], 144 nM. The half-life of the pBoLA-I complex in assay [3] was 4 h.
Take Ta9 epitope […] (peptide): the Kd turned out to be 74 nM in assay [6] and 309 nM in assay [4].
As to Tp4 328–336 epitope … (peptide), the values for the half-life of the pBoLA-I complex in assay [2] and in assay [3] were 23 h and 2 h, respectively.
Tp2 49–59 epitope […] (peptide): the EC50 in assay [7] came out at 364 nM. The same substance displayed a half-life of the pBoLA-I complex in assay [8] of 2 h.
Substance Tp2 98–106 epitope […] (peptide) had a half-life of the pBoLA-I complex in assay [8] of 3 h.

As usually defined, the EC50 is the concentration giving half of the maximal effect. Broadly, the Kd is the constant that tells how readily two partners part at equilibrium.
